Experimental data: patent publication US20260209362A1 (VIB VZW, published 2026)

T1: human IL-12Rβ2 (human, UniProt Q99665 24-862)
T1 construct: Expressed on HEK293T cells transiently transfected with a pcDNA3 plasmid (Genscript clone OHu21785); also called hIL-12RB2; IL-12 receptor β2 subunit
T1 sequence: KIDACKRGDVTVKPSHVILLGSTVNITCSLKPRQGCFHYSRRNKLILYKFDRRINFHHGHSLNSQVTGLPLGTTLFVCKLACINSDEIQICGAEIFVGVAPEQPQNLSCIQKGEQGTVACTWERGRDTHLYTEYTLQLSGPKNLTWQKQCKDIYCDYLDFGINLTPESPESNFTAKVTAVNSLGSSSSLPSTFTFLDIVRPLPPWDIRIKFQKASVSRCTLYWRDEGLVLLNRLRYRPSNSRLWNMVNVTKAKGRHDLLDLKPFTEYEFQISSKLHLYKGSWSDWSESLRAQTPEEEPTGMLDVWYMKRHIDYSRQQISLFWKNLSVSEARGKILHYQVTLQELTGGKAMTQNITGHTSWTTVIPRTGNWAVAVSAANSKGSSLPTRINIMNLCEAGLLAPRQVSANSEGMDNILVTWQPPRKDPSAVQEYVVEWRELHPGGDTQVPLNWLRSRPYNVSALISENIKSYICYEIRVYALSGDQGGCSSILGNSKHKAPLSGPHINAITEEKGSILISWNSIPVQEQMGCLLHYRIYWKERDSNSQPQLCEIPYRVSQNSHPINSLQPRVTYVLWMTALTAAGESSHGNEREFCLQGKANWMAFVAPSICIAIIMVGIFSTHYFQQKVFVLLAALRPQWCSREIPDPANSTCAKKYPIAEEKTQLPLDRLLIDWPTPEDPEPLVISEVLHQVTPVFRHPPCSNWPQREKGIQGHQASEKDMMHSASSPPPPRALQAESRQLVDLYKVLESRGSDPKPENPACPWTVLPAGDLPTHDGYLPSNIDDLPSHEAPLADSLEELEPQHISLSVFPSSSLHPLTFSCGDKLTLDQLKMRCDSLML


These binders were tested against T1, human IL-12Rβ2 (assay: flow cytometry, P.E. on transfected HEK293T cells).

Binder	% cells bound [%]	dMFI
anti-IL-12Rβ2 VHH clone 3CRHS142 (VHH, not shown: small tags and cut ends, periplasmic extract) VHH: QVQLQESGGGLVQAGGSLRLSCVSSQTLVGIEAMGWYRQAPGKQRELVALITLNGGTFYADSVKGRFTISRDVAEHMLYLEMNSLNPEDTAVYFCVAGVESDNEEPTYWGQGTQVTVSS	1.02	210
anti-IL-12Rβ2 VHH clone 3CAHS39 (VHH, not shown: small tags and cut ends, periplasmic extract) VHH: QVQLQESGGGLVQAGGSLRLSCAASGRTINAYIMGWFRQAPGKEREFVAAVSGSGGSTYYADSVKGRFTISRDNAKNTVNLQMDNLRSEDTDVYYCAATYESVYLQNPGQYDYWGQGTQVTVSS	39	918
anti-IL-12Rβ2 VHH clone 3CAHS124 (VHH, not shown: small tags and cut ends, periplasmic extract) VHH: QVQLQESGGGLVQPGGSLRLSCAASGRTINAYIMGWFRQAPGKEREFVAAVSGSGGSTYYADSVKGRFTISRDNAKNTVNLQMDNLRSEDTDVYYCAATYESVYLQNPGQYDYWGQGTQVTVSS	46.3	1200
anti-IL-12Rβ2 VHH clone 3CAHS53 (VHH, not shown: small tags and cut ends, periplasmic extract) VHH: QVQLQESGGGLVEPGGSLRLSCAASGRTINAYIMGWFRQAPGKEREFVAAVSGSGGSTYYADSVKGRFTISRDSAKNTVNLQMDNLRSEDTDVYYCAATYESVYLQNPGQYDYWGQGTQVTVSS	49.3	1460
anti-IL-12Rβ2 VHH clone 3CAHS170 (VHH, not shown: small tags and cut ends, periplasmic extract) VHH: QVQLQESGGGLVQAGGSLRLSCVASGRTFSSYAMGWFRQGPGKEREFVAAISWSGVSIYYADSVKGRFTISRDNAKNTVYLQMNSLEPEDTAVYYCAGTEGAYTVAGGSTFGYDMDYWGKGTQVTVSS	38.3	809
anti-IL-12Rβ2 VHH clone 3CAH48 (VHH, not shown: small tags and cut ends, periplasmic extract; also called 20360) VHH: QVQLQESGGGLVQAGGSLRLSCAASGRTFSSYAMGWFRQGPGKEREFVAAISWSGVSTYYADSVKGRFTISRDNAKNTVYLQMNSLRPEDTAVYYCAATEGAYTVAGGSTFGYDMDYWGKGTQVTVSS	39.4	801

Results, then the binder that gave them:

% cells bound [%]	dMFI	Binder
3.55	254	anti-IL-12Rβ2 VHH clone 2CRHS4 (VHH, not shown: small tags and cut ends, periplasmic extract) VHH: QVQLQESGGGLVQPGGSLRLSCVSSQTLVGIEAMGWYRQAPGKQRELVALITLNGGTFYADSVKGRFTISRDVAGHMLYLEMNSLNPEDTAVYFCVAGVESDNEEPTYWGQGTQVTVSS
47.4	1270	anti-IL-12Rβ2 VHH clone 3CAHS150 (VHH, not shown: small tags and cut ends, periplasmic extract) VHH: QVQLQESGGGSVQAGGSLRLSCAASGRTINAYVMGWFRQAPGKEREFVAAISGSGGSTYYADSVKGRFTISRDNAKNTVNLQMDNLRSEDTDVYYCAATYESVYLQNPGQYDYWGQGTQVTVSS
44.3	1110	anti-IL-12Rβ2 VHH clone 3CAHS52 (VHH, not shown: small tags and cut ends, periplasmic extract) VHH: QVQLQESGGGSVQAGGSLRLSCAASGRTINAYIMGWFRQAPGKEREFVAAVSGSGGSTYYADSVKGRFTISRDNAKNTVNLQMDNLRSEDTDVYYCAATYESVYLQNPGQYDYWGQGTQVTVSS
47.6	1350	anti-IL-12Rβ2 VHH clone 3CAHS43 (VHH, not shown: small tags and cut ends, periplasmic extract) VHH: QVQLQESGGGSVQAGGSLRLSCAASGRTINAYIMGWFRQAPGKEREFVAAVSGSGGSTYYADSVKGRFTISRDNAKNTVNLQMDNLRSEDTDVYYCAATYESVYLRNPGQYDYWGQGTQVTVSS
40.9	912	anti-IL-12Rβ2 VHH clone 3CAHS142 (VHH, not shown: small tags and cut ends, periplasmic extract) VHH: QVQLQESGGGLVQAGESLTLSCIASGVIKDYAMGWFRQAPGKEREFVAAISWSGVSIYYADSVKGRFTISRDNAKNTVYLQMNSLEPEDTAVYYCAGTEGAYTVAGGSTFGYDMDYWGKGTQVTVSS
36.7	668	anti-IL-12Rβ2 VHH clone 2CAH27 (VHH, not shown: small tags and cut ends, periplasmic extract) VHH: QVQLQESGGGSVQSGGSLRLSCVASGRTFSSYAMGWFRQGPGKEREFVAAISWSGVSIYYADSVKGRFTISRDNAKNTVYLQMNSLEPEDTAVYYCAGTEGAYTVAGGSTFGYDMDYWGKGTQVTVSS
